Target: T1, His-Dis3l2 D389N (mouse, UniProt Q8CI75 1-870, D389N)
T1 sequence: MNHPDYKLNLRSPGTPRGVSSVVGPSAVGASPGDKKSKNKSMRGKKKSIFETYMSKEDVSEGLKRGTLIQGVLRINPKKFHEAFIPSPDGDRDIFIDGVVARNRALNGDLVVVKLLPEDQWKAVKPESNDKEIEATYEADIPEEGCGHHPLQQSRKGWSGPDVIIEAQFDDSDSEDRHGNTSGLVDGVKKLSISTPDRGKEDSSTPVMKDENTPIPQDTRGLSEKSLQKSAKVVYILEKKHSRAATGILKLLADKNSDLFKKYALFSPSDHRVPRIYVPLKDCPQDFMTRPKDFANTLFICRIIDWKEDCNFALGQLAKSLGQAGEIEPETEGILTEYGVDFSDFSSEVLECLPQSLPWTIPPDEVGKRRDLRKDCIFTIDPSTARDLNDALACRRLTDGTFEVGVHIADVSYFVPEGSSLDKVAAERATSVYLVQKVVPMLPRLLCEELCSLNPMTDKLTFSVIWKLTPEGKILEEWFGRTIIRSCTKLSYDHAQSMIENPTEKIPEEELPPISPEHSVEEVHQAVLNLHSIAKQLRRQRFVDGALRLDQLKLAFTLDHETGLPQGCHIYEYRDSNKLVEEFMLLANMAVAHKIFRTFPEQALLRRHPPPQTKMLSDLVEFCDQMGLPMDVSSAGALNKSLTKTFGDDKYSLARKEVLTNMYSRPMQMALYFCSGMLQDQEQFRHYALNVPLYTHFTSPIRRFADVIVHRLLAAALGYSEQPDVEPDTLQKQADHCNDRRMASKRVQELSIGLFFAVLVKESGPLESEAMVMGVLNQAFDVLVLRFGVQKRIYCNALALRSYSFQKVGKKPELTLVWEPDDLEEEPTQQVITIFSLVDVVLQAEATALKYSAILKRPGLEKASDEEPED
Experiment: EMSA

B1: mmu-pre-let-7a-1+14U (structured_RNA)
RNA: UGAGGUAGUAGGUUGUAUAGUUUUAGGGUCACACCCACCACUGGGAGAUAACUAUACAAUCUACUGUCUUUCCUUUUUUUUUUUUUU
Question: Does B1 bind?
Answer: Result: binds

B2: mmu-pre-let-7a-1 (structured_RNA)
RNA: UGAGGUAGUAGGUUGUAUAGUUUUAGGGUCACACCCACCACUGGGAGAUAACUAUACAAUCUACUGUCUUUCC
Question: Does B2 bind?
Answer: Result: no binding

Source: paper PMC3651781
